# Experimental data reported in patent US20220347236A1 (GL INNOVATION, published 2022).
# Legend:
# [1] = target: T1, human IgE (human, UniProt P01854-1 1-428); experiment: SPR (ProteOn XPR36), ratio of KD to that of omalizumab
# T1 construct: Bought human IgE; also called human IgE (Calbiochem)
# Experimental: (§1) The experiments were conducted by identifying zero base using 25 mM NaOH as a regeneration buffer, and then repeating the above steps. Thereafter, a binding curve was identified using a protein binding analyzer (ProteOn XPR36, Bio-Rad Laboratories, Inc., USA).
# [2] = target: T1, human IgE; experiment: SPR (ProteOn XPR36, GLC chip), IgE coated, protein flowed; KD = kd/ka
# Experimental: as §1
# [3] = target: T1, human IgE; experiment: SPR (ProteOn XPR36, GLC chip), IgE coated, protein flowed at various concentrations
# Experimental: as §1
# [4] = target: T1, human IgE; experiment: SPR (ProteOn XPR36), ratio of ka to that of omalizumab
# Experimental: as §1
# [5] = target: T1, human IgE; experiment: SPR (ProteOn XPR36), ratio of kd to that of omalizumab
# Experimental: as §1
# [6] = target: T1, human IgE; experiment: SPR kinetics on IgE (Table 3), omalizumab as reference; paragraph 125 ties the 69-fold end to FcεRIαECD-Fc2ST
# Experimental: as §1
# [7] = target: T1, human IgE; experiment: SPR (ProteOn XPR36), ratio of KD of omalizumab to KD of IgETRAP
# Experimental: as §1
# [8] = target: T2, mouse IgE (anti-dinitrophenyl IgE) (mouse, UniProt P06336 1-421); experiment: cell-based or functional assay
# T2 sequence (P06336 whole entry): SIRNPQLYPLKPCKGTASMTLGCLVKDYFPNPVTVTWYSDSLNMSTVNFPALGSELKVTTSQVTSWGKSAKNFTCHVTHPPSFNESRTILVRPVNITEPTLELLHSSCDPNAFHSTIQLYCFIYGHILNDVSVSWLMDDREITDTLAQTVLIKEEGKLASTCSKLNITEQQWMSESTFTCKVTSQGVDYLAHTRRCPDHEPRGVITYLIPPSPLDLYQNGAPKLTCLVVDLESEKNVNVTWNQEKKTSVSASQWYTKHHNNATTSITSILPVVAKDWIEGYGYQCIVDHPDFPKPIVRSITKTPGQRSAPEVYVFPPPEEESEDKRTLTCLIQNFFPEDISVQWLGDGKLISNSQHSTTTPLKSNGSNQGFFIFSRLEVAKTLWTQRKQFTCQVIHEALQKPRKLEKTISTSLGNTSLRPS
# [9] = target: T1, human IgE; experiment: cell-based or functional assay
# [10] = target: T2, mouse IgE (anti-dinitrophenyl IgE); experiment: cell-based or functional assay; remark: listed apart in the source
# [11] = target: T1, human IgE; experiment: SPR (ProteOn XPR36), human IgE
# [12] = target: T1, human IgE; experiment: SPR kinetics on IgE (Table 3), omalizumab as reference; paragraph 125 ties the 1.5-fold end to FceR1αECD-Fc2ST
# Experimental: as §1
# T1 sequence (P01854 other isoform, or with tags, fused parts or gaps): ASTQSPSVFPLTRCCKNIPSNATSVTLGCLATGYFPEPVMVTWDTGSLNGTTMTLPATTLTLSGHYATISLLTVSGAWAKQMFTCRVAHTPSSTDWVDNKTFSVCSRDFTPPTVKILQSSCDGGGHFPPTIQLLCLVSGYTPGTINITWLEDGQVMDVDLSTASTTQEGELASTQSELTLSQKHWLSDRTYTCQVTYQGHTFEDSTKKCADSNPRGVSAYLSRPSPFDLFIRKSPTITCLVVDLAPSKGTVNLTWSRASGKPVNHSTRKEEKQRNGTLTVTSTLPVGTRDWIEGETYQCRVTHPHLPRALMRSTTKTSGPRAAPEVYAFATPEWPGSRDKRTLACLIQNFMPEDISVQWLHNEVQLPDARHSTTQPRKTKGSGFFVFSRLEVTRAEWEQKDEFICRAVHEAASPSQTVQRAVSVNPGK
Binder,fold of KD against omalizumab [1],Kd [2],koff [3],kon [3],fold of ka against omalizumab [4],fold of kd against omalizumab [5],other results
FcεRIαECD-Fc3 (Fc fusion) VPQKPKVSLNPPWNRIFKGENVTLTCNGNNFFEVSSTKWFHNGSLSEETNSSLNIVNAKFEDSGEYKCQHQQVNESEPVYLEVFSDWLLLQASAEVVMEGQPLFLRCHGWRNWDVYKVIYYKDGEALKYWYENHNISITNATVEDSGTYYCTGKVWQLDYESEPLNITVIKAPREKYWLQAQPQAEGSLAKATTAPATTRNTGRGGEEKKGSKEKEEQEERETKTPECPSHTQPLGVFLFPPKPKDTLMISRTPEVTCVVVDVSQEDPEVQFNWYVDGVEVHNAKTKPREEQFNSTYRVVSVLTVLHQDWLNGKEYKCKVSNKGLPSSIEKTISKAKGQPREPQVYTLPPSQEEMTKNQVSLTCLVKGFYPSDIAVEWESNGQPENNYKTTPPVLDSDGSFFLYSRLTVDKSRWQEGNVFSCSVMHEALHNHYTQKSLSLSLGK,22 fold,0.672 nM,0.000133 s⁻¹,198000 M⁻¹ s⁻¹,2 fold,45 fold,–
"FcεRIαECD-Fc3ST (Fc fusion, sialic acid added (α-2,6-sialic acid transferase co-expressed), Dimer; also called FcεRIαECD-Fc3 + a2,6-ST) VPQKPKVSLNPPWNRIFKGENVTLTCNGNNFFEVSSTKWFHNGSLSEETNSSLNIVNAKFEDSGEYKCQHQQVNESEPVYLEVFSDWLLLQASAEVVMEGQPLFLRCHGWRNWDVYKVIYYKDGEALKYWYENHNISITNATVEDSGTYYCTGKVWQLDYESEPLNITVIKAPREKYWLQAQPQAEGSLAKATTAPATTRNTGRGGEEKKGSKEKEEQEERETKTPECPSHTQPLGVFLFPPKPKDTLMISRTPEVTCVVVDVSQEDPEVQFNWYVDGVEVHNAKTKPREEQFNSTYRVVSVLTVLHQDWLNGKEYKCKVSNKGLPSSIEKTISKAKGQPREPQVYTLPPSQEEMTKNQVSLTCLVKGFYPSDIAVEWESNGQPENNYKTTPPVLDSDGSFFLYSRLTVDKSRWQEGNVFSCSVMHEALHNHYTQKSLSLSLGK",24 fold,0.621 nM,0.000149 s⁻¹,240000 M⁻¹ s⁻¹,1.7 fold,40 fold,–

# Stronger by Kd [2], values ahead:
fold of KD against omalizumab [1],Kd [2],koff [3],kon [3],fold of ka against omalizumab [4],fold of kd against omalizumab [5],Binder,other results
38 fold,0.388 nM,8.29e-05 s⁻¹,214000 M⁻¹ s⁻¹,1.9 fold,73 fold,"FcεRIαECD-Fc2 (Fc fusion, also called FcεRIα ECD fusion protein; polypeptide dimer) VPQKPKVSLNPPWNRIFKGENVTLTCNGNNFFEVSSTKWFHNGSLSEETNSSLNIVNAKFEDSGEYKCQHQQVNESEPVYLEVFSDWLLLQASAEVVMEGQPLFLRCHGWRNWDVYKVIYYKDGEALKYWYENHNISITNATVEDSGTYYCTGKVWQLDYESEPLNITVIKAPREKYWLQRNTGRGGEEKKGSKEKEEQEERETKTPECPSHTQPLGVFLFPPKPKDTLMISRTPEVTCVVVDVSQEDPEVQFNWYVDGVEVHNAKTKPREEQFNSTYRVVSVLTVLHQDWLNGKEYKCKVSNKGLPSSIEKTISKAKGQPREPQVYTLPPSQEEMTKNQVSLTCLVKGFYPSDIAVEWESNGQPENNYKTTPPVLDSDGSFFLYSRLTVDKSRWQEGNVFSCSVMHEALHNHYTQKSLSLSLGK",–
69 fold,0.216 nM,5.69e-05 s⁻¹,264000 M⁻¹ s⁻¹,1.5 fold,106 fold,"FcεRIαECD-Fc2ST (Fc fusion, sialic acid added (α-2,6-sialic acid transferase co-expressed), Homodimer; also called IgETRAP; FceR1αECD-Fc2ST) VPQKPKVSLNPPWNRIFKGENVTLTCNGNNFFEVSSTKWFHNGSLSEETNSSLNIVNAKFEDSGEYKCQHQQVNESEPVYLEVFSDWLLLQASAEVVMEGQPLFLRCHGWRNWDVYKVIYYKDGEALKYWYENHNISITNATVEDSGTYYCTGKVWQLDYESEPLNITVIKAPREKYWLQRNTGRGGEEKKGSKEKEEQEERETKTPECPSHTQPLGVFLFPPKPKDTLMISRTPEVTCVVVDVSQEDPEVQFNWYVDGVEVHNAKTKPREEQFNSTYRVVSVLTVLHQDWLNGKEYKCKVSNKGLPSSIEKTISKAKGQPREPQVYTLPPSQEEMTKNQVSLTCLVKGFYPSDIAVEWESNGQPENNYKTTPPVLDSDGSFFLYSRLTVDKSRWQEGNVFSCSVMHEALHNHYTQKSLSLSLGK","fold change of equilibrium dissociation constant (KD) against omalizumab (printed 'higher'; meant as stronger binding) [6]: 22 to 69 fold; Comparison of KD [Omalizumab/IgETRAP] [7]: ~69 fold; Average inhibition ratio (%) of mast cell degranulation at IgETRAP 0.016 ug/mL (0.11 nM; IgE/IgETRAP molar ratio 47.8), anti-DNP IgE 1 ug/mL [8]: 2.12%; Average inhibition ratio (%) of mast cell degranulation at IgETRAP 0.063 ug/mL (0.42 nM; IgE/IgETRAP molar ratio 12.5), anti-DNP IgE 1 ug/mL [8]: 12.4%; Average inhibition ratio (%) of mast cell degranulation at IgETRAP 0.25 ug/mL (1.67 nM; IgE/IgETRAP molar ratio 3.15), anti-DNP IgE 1 ug/mL [8]: 13.8%; Average inhibition ratio (%) of mast cell degranulation at IgETRAP 0.5 ug/mL (3.33 nM; IgE/IgETRAP molar ratio 1.58), anti-DNP IgE 1 ug/mL [8]: 49.4%; Average inhibition ratio (%) of mast cell degranulation at IgETRAP 1 ug/mL (6.67 nM; IgE/IgETRAP molar ratio 0.79), anti-DNP IgE 1 ug/mL [8]: 99.3%; Average inhibition ratio (%) of mast cell degranulation at IgETRAP 2 ug/mL (13.3 nM; IgE/IgETRAP molar ratio 0.40), anti-DNP IgE 1 ug/mL [8]: 99.4%; Average inhibition ratio (%) of mast cell degranulation at IgETRAP 4 ug/mL (26.7 nM; IgE/IgETRAP molar ratio 0.20), anti-DNP IgE 1 ug/mL [8]: 99.8%; IC50 of mast cell inhibition (β-hexosaminidase release, human FcεRI-expressing mouse bone marrow-derived mast cells, human IgE 1 ug/mL) [9]: ~0.0112 µg/mL; fold higher inhibitory ability on mast cell activity than Xolair [9]: 58 fold; IC50 of inhibition of degranulation of mouse bone marrow-derived mast cells (β-hexosaminidase release) in the presence of 1 µg/ml mouse IgE [10]: 0.45 µg/mL; fold of dissociation rate (Kd) against omalizumab [5]: ~94.5 fold; Kd [11]: 0.215 nM; koff [11]: 5.69e-05 s⁻¹; kon [11]: 264000 M⁻¹ s⁻¹; fold lower association rate (ka) than omalizumab [12]: 1.5 to 2 fold"
